Data on 4 molecules can be found in patent CN117138036A (NANJING RONGJIEKANG BIOTECHNOLOGY CO LTD, dated 2023).

The target of one experiment is IL-4Rα (UniProt P24394 26-232, limits assumed). Put plainly: cell-based or functional assay.
A further experiment deals with IL-5 (human, UniProt P05113 20-134). Put plainly: cell-based or functional assay.
Sequence of IL-5 (P05113 20-134 limits assumed): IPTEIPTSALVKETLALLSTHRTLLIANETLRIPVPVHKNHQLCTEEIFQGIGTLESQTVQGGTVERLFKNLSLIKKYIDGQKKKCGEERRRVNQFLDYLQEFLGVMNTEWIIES

B1: 4E9V0 (VHH)
VHH: QVQLVESGGGSVQAGGSLRLSCAASGDFYCMAWFRQAPGKEREGVATIRSGGRSTYYADSVKGRFTISKDNAKDTLYLQMNSLKPEDTAMYYCAVGVDGNCRNYWGQGTQVTVSS
B1: in the experiment with IL-4Rα, the “EC50, 中和IL-4诱导的TF-1细胞增殖” value worked out at 0.281 nM and the “EC50, 中和IL-13诱导的TF-1细胞增殖” value amounted to 0.229 nM.

B2: reslizumab (antibody, V domains shown)
VH: EVQLVESGGGLVQPGGSLRLSCAVSGLSLTSNSVNWIRQAPGKGLEWVGLIWSNGDTDYNSAIKSRFTISRDTSKSTVYLQMNSLRAEDTAVYYCAREYYGYFDYWGQGTLVTVSS
VL: DIQMTQSPSSLSASVGDRVTITCLASEGISSYLAWYQQKPGKAPKLLIYGANSLQTGVPSRFSGSGSATDYTLTISSLQPEDFATYYCQQSYKFPNTFGQGTKVEVK
For the molecule B2, the “EC50, 中和IL-5诱导的TF-1细胞增殖” value with IL-5 was 0.122 nM.

B3: 2B3 (VHH)
VHH: QVQLVESGGGSVQAGGSLRLSCAASGNTFSFSTYCMGWFRQSPGKEREGSLATIYDGSTAYAGSVKGRFTISVDNAKNILYLQMNNLKPEDTAMYYCAAAKYCMFWSDPSYWGQGTQVTVSS
For the molecule B3, the “EC50, 中和IL-5诱导的TF-1细胞增殖” value with IL-5 amounted to 0.336 nM.

B4: dupilumab (antibody, V domains shown)
VH: EVQLVESGGGLEQPGGSLRLSCAGSGFTFRDYAMTWVRQAPGKGLEWVSSISGSGGNTYYADSVKGRFTISRDNSKNTLYLQMNSLRAEDTAVYYCAKDRLSITIRPRYYGLDVWGQGTTVTVSS
VL: DIVMTQSPLSLPVTPGEPASISCRSSQSLLYSIGYNYLDWYLQKSGQSPQLLIYLGSNRASGVPDRFSGSGSGTDFTLKISRVEAEDVGFYYCMQALQTPYTFGQGTKLEIKR
Turning to B4, in the experiment with IL-4Rα, the “EC50, 中和IL-4诱导的TF-1细胞增殖” value was 0.13 nM and the “EC50, 中和IL-13诱导的TF-1细胞增殖” value was determined as 0.178 nM.
